Assay: yeast display, Sf9 membrane polyspecificity reagent, FACS + sequencing; frameworks hold sequencing errors
Method in brief: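 Synthetic nanobody libraries on Saccharomyces cerevisiae BJ5465 were galactose-induced for 36–48 hours, stained 1 hour at 4 °C with 10% biotinylated, detergent-solubilized Sf9 membrane reagent and enriched on streptavidin microbeads. FACS then separated cells into low and high (top ~1%) gates by anti-HA (expression) and streptavidin (reagent binding) fluorescence. Genes were colony-PCR amplified, MiSeq 2 × 250 sequenced and CDR-length filtered. A clone's polyreactivity label is that of its gate of origin.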

| Sequence | polyreactivity (PSR sort gate) |
| --- | --- |
| QVQLVESGGGLVQAGGSLRLSCAASGFTIFEDNAMGSYRQAPGKERELVAAITSGGSTNYADSVKGRFTISRDNAKNTVYLQMNSLKPEDTAVYYCAYDRVPLKTRFYYFPWGYDYWGQGTQVTVSS | low polyreactivity |
| QVQLVESGGGLVQAGGSLRLSCAASGFTIFLNAMGWYRQAPGKERELVAAITVSGSSTYYADSVKGRFTISRDNAKNTVYLQMNSLKPEDTAVYYCNAEIYSPYYTYDYWGQGTQVTVSS | low polyreactivity |
| QVQLVESGGGLVQAGGSLRLSCAASGFTILRYAMGWDRQAPGTERELVAAIDWSGGSTYYADSVKGRFTISRDNAKNTVYLQMNSLKPEDTAVYYCNARTINVPSRFNYWGQGTQVTVSS | low polyreactivity |
| QVQLVESGGGLVQAGGSLRLSCAASGFTIRRNAMGWYRQAPGKERELVAAISRSGGSTYADSVKGRFTISRDNAKNTVYLQMNSLKPEDTAVYYFASDHSYYRYTYTALIAEFYYWGQGTQVTVSS | low polyreactivity |
| QVQLVESGGGLVQAGGSLRLSCAASGFTIRRYAMGWYRQAPGKERELVAAITTGGSTYYADSVKGRFTISRDNAKNTVYLQMNSLKPEDTAVYYCATDTYPYPLYYSPGAYGYWGQGTQVTVSS | high polyreactivity |
| QVQLVESGGGLVQAGGSLRLSCAASGFTIRSYVMGWYRQAPGKERELVAAIRRSGGSTYYADSVKGRFTISRDNAKNTVYVQLNSLKPEDTAFYYCNAPHHRYDWGQGTQVTVSS | high polyreactivity |
| QVQLVESGGGLVQAGGSLRLSCAASGFTIRWYTMGWYRQAPGKERELVAAISRGGSTNYADSVKGRFTISRDNAKNTVYLQMNSLKPEDTAVYYCATSAPLVTSSGYGYWGQGTQVTVSS | high polyreactivity |
| QVQLVESGGGLVQAGGSLRLSCAASGFTISAYAMGWYRQAPGKERQLVASISRGGITNYADSVKGRFTISRDNAKNTVYLQMTSLKPEETAVYYCAAETRNHGILYDYWGQGTQVTVSS | high polyreactivity |
| QVQLVESGGGLVQAGGSLRLSCAASGFTISKYAMGWYRQAPGKERELVAVISSGGRTNYADSVKGRFTISRDNAKNTVYLQMNSLKPEDTAVDYCAAIGWRTRSRFEYWGQGTQVTVSS | high polyreactivity |
| QVQLVESGGGLVQAGGSLRLSCAASGFTISRYTMGWYRQAPGKERELVASITRRAGSTYYADSVKGRYTISRDNAQTTVYLQMYSLKPEDTAVYYCAAYGWTFSKVDLEMDYWGQGTQVTVSS | high polyreactivity |
| QVQLVESGGGLVQAGGSLRLSCAASGFTIVPYAMGWYRQAPGNERELVAAISRRGSRTYYADSVKGRFTISRDNAKNTVYLQMNSLKAEDTAVYYCAAKLSAVKAAYDYWGQGTQVTVSS | high polyreactivity |
| QVQLVESGGGLVQAGGSLRLSCAASGFTIVYYAMGWYRQAPGKERELVAVISSRGGSTYYADSVKGRFTISRDNAKNTVYLQMNSLKPEDTAVYYCAARGRGQPFVRYDYWGQGTQVTVSS | high polyreactivity |
| QVQLVESGGGLVQAGGSLRLSCAASGFTIWDYAMGWYRQAPGKERELVAAISRRGGTTYYADSVKGRFTISRDNAKNTVYLQMNSLKPEETAVYYCATYSYTWLNYYWGQGTQVTVSS | high polyreactivity |
| QVQLVESGGGLVQAGGSLRLSCAASGFTIWPYAMGWYRQPPGKERELVAGITRNGGSTYYADSVKGRFTISRDNAKNTVYLQMNSLKPEDTAVYYCNTKYAVEFDYWGQGTQVTVSS | low polyreactivity |
| QVQLVESGGGLVQAGGSLRLSCAASGFTIWQNAMGWYRQAPGKERELVAGIRLSGGSTYADSVKGRFTISRDNAKNTVYLQMNSLKAEDTAVYYCNAAYKNSPYDYWGQGTQVTVSS | high polyreactivity |
| QVQLVESGGGLVQAGGSLRLSCAASGFTIYRNAMGWYRQAPGKERELVARIRRTGGRTYYADSVKGRFTISRDNAKNTVNLQMNSLKPEDTAVYYCAAYPGPGARYYYWGQGTQVTVSS | high polyreactivity |

| Sequence | polyreactivity (PSR sort gate) |
| --- | --- |
| QVQLVESGGGLVQAGGSLRLSCAASGFTLADNTMGWYRQAPGKERELVATISGSGSTYYADSVKGRFTISRDNAKNTVYLQMNSLKPEDTAVYYCAAVDTGTEKDLLRLGNGGYDYWGQGTQVTVSS | low polyreactivity |
| QVQLVESGGGLVQAGGSLRLSCAASGFTLAGYDMGWYRQAPGKEREFVATISTYADSVKGRFTISRDNAKNTVYLQMNSQKPEDSAVYYCAAGRYLWHFTFDYWGQGTQVTVSS | low polyreactivity |
| QVQLVESGGGLVQAGGSLRLSCAASGFTLATYAMGWYRQAPGKERELVAAITRSGGSTYYADSVKGRFTISRDNAKNTVYLQMNSLKPEDTAVYYCNAREVRYEYNYWGQGTQVTVSS | low polyreactivity |
| QVQLVESGGGLVQAGGSLRLSCAASGFTLAYYAMGWSRQAPGKERELVAAISWSGDTTYYADSVKGRFTISRDNAKNTVYLQMNSLKPEDTAVYYCAADYYLWGQGTQVTVSS | high polyreactivity |
| QVQLVESGGGLVQAGGSLRLSCAASGFTLDKYAMGWYRQAPGKERELVAAITWSGGSTYYADSVKGRFTISRDNAKNTVYLQMNSLKPEDTAVYYCNVLRYRLWGQGTQVTVSS | high polyreactivity |
| QVQLVESGGGLVQAGGSLRLSCAASGFTLDPYALGWYRQAPGKERELVAAIRLSGCSTYYADSVKGRFTISRDNAKNTVYLQMNSLKPEDTAVYYCAADGISHWLYRYDYWGQGTQVTVSS | low polyreactivity |
| QVQLVESGGGLVQAGGSLRLSCAASGFTLDWYAMGWYRQAPGKERELVAAIWSAGTTYYADSVKGRFTISRDNAKNTVYLQMNSLKPEDTAVYYCATVSDYDFGLYDYWGQGSQVTVSS | low polyreactivity |
| QVQLVESGGGLVQAGGSLRLSCAASGFTLDWYVMGWYRQATGKERELVAAISSSGGRTYYADSVKGRFTISRDNAKNTVYLQMNSLKPEDTAVYYCAARNQYGGYPYGYDYWGQGTQVTVSS | high polyreactivity |
| QVQLVESGGGLVQAGGSLRLSCAASGFTLDYYAMGWYRKAPGKERELVAAISFSGGSTYYADSVKGRFTISRDNAKNTVYLQMNSLKPEDTAVYYCAADPQIVWYDYWGQGTQVTVSS | low polyreactivity |
| QVQLVESGGGLVQAGGSLRLSCAASGFTLEYYAMGWYRQAPGKERELVAAITNGASTNYADSVKGRFTISRDNAKNTVYLQMNSLKPEDTAVYYDYWGQGTQVTVSS | low polyreactivity |
| QVQLVESGGGLVQAGGSLRLSCAASGFTLFFYAMGWYRQAPGKEREFVASIRTSGGSTYYADSVKGRFTISRDNAKNTVYLQMNSLKPEDTAVYYCAARPLYGYGYWGQGTQVTVSS | high polyreactivity |
| QVQLVESGGGLVQAGGSLRLSCAASGFTLGGYAMGWYRQAPGKEREFVAAISGRGGRTYYADSVKGRFTISRDNAKNTVYLQMNSLKPEDTAVYYCAAPTNHWTRLSGDYWGQGTQVTVSS | high polyreactivity |
| QVQLVESGGGLVQAGGSLRLSCAASGFTLGNYAMGWYRQAPGKERELVAVITSGGRTYYADSVKGRFTISRDNAKNTVYLQMNSLKPEDTAVYYCNTKVYYYYRAVVDFDYWGQGTQVTVSS | low polyreactivity |
| QVQLVESGGGLVQAGGSLRLSCAASGFTLGRNAMGWYRQAPGKERELVASISGRGGSSYYADSVKGRFTISRDNAKNTVYLQMNSLKPEDTAVYYCAARGVSGKYYYWGQGTQVTVSS | high polyreactivity |
| QVQLVESGGGLVQAGGSLRLSCAASGFTLGTYAMGWYRQAPGKERELVAAISRGGGITYYADSVKGRFTISRDNAKNTVYLQMISLKPEDTAVYDCAADWRYWRWAFDYWGQGTQVTVSS | high polyreactivity |
| QVQLVESGGGLVQAGGSLRLSCAASGFTLGWYAMGWYRQAPGKERELVAAISRSGGSTYYADSVKGRFTISRDNAKNTVYLQMNCLKPEDTGVYYCAAEVNYAGRAVWSYYWGQGTQVTVSW | high polyreactivity |

From the nanobody polyreactivity screen of Harvey et al. (2022)
